Two substances from article doi:10.1101/2022.10.18.512691 can be followed below.

Test [1] addresses APS-kinase from Methanothermococcus thermolithotrophicus (Methanothermococcus thermolithotrophicus). The experiment in a line: crystal structure.
The target in test [2] is ATP-sulfurylase from Methanothermococcus thermolithotrophicus (Methanothermococcus thermolithotrophicus). Briefly: SEC.
Test [3] has the same target. The experiment in a line: crystal structure.

With “APS-kinase from Methanothermococcus thermolithotrophicus (enzyme)”, in test [1], the stoichiometry N was 2.
As for “ATP-sulfurylase from Methanothermococcus thermolithotrophicus (enzyme)”, the stoichiometry N in test [2] and in test [3] was 2 each time.
